1 substance from publication PMC8629194 can be followed below.

The target of the test is wt ACE2_(740)-Fc (M31) (human) (UniProt Q9BYF1). In words: SPR.
Sequence of wt ACE2_(740)-Fc (M31) (human) (Q9BYF1 18-740): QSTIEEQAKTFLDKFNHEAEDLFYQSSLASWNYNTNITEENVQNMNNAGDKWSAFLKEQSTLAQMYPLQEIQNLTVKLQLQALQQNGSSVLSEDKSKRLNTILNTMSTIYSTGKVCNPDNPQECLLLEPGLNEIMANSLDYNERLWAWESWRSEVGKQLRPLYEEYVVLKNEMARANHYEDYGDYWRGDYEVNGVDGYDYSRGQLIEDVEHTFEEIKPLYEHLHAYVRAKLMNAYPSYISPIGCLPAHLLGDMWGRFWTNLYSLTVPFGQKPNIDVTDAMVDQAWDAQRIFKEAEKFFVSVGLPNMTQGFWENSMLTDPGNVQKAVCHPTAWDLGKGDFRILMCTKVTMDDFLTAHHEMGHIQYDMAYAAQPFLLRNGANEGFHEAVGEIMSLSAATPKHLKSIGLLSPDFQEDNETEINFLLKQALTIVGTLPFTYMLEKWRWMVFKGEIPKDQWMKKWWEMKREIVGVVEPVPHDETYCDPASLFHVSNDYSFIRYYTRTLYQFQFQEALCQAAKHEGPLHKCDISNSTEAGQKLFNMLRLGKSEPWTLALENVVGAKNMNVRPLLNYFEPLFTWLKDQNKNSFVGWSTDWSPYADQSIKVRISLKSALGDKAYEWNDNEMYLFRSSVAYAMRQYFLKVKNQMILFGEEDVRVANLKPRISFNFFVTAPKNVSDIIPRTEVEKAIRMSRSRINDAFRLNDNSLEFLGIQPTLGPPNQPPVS

In turn, “SARS-CoV-2 RBDwt (residue 319–541) (from UniProt P0DTC2 319-541) (domain or fragment; other documents disagree on this pair)” had a Kd of 13.9 nM.
